Experiments:
[1] = molecular target: T1, soluble, recombinant hFcRn (human, UniProt P55899 24-297; P61769 21-119, limits assumed, biotinylated in the yeast flow cytometry assays (biotin-soluble FcRn); site not stated); assay: competition, flow cytometry: IgG1 inhibits binding of soluble FcRn to yeast-displayed m01s at pH 6.0
T1 construct: also called rFcRn; soluble FcRn

[2] = molecular target: T1, soluble, recombinant hFcRn; assay: Biacore (SPR), HiswtCH2 at 75-1200 nM
Procedure: For reference, the WT CH2 sequence (without the HIS tag) is shown in SEQ ID NO: 1. “HiswtCH2” of FIG. 1 is the WT CH2 sequence with a His tag, e.g., a group of histidine residues in a row, e.g., 6 histidine residues. […] HiswtCH2 was tested at 75, 150, 300, 600, 1200 nM. The A curves (1A, 2A, 3A, 4A, 5A, and 6A) are binding curves; the B curves (1B, 2B, 3B, 4B, 5B, and 6B) are fitted curves.

T1 sequence (P55899 24-297 limits assumed, chain 1 of 2): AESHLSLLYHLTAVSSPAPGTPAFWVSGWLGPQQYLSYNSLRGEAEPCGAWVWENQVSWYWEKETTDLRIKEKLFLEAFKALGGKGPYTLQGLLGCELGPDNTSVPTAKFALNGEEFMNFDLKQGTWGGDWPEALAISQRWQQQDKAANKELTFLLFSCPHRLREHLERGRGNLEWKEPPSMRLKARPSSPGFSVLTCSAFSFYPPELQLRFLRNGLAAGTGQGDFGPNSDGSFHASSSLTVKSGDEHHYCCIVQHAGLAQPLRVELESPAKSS
T1 sequence (P61769 21-119 limits assumed, chain 2 of 2): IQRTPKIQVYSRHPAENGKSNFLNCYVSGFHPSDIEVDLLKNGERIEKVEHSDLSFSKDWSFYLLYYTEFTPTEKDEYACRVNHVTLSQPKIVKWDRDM

Molecule IgG1 (antibody) has an IC50 [1] of 629 nM.

B1: HiswtCH2 (wild type CH2 domain of human IgG1 with a His tag) (other)
chain: APELLGGPSVFLFPPKPKDTLMISRTPEVTCVVVDVSHEDPEVKFNWYVDGVEVHNAKTKPREEQYNSTYRVVSVLTVLHQDWLNGKEYKCKVSNKALPAPIEKTISKAKGQ
notes: also called wild type (WT) CH2; not shown: His tag, 'e.g., 6 histidine residues'
In the case of B1, the Kd [2] is reported as 90.8 nM, the koff [2] is reported as 0.00184 s⁻¹ and the kon [2] is reported as 20300 M⁻¹ s⁻¹.

— patent publication US20120230981A1 (RESEARCH CORPORATION TECHNOLOGIES, published 2012)
